According to article PMC12147174, “PEX1^G843D remains functional in peroxisome biogenesis but is rapidly degraded by the proteasome” (The Journal of Biological Chemistry, 2025):
Substitutions are numbered along the chain they refer to.

What was measured:
[1] = target: T1, ScPex1^WT (Pex1-FLAG), Saccharomyces cerevisiae (Saccharomyces cerevisiae, UniProt P24004 1-1043); experiment: SEC; coexpressed complex purified by Ni-NTA and anti-FLAG resin, equal concentrations of FLAG eluate loaded on Superose 6 in GF buffer (50-60 mM Hepes pH 7.6, 50 mM NaCl, 50 mM KCl, 5% glycerol, 10 mM MgCl2, 1 mM ATP); fractions by SDS-PAGE and Coomassie; details: both partners purified
T1 construct: Pex1, Saccharomyces cerevisiae; Expressed from pETDuet; Forms a heterohexamer with Pex6; also called yeast Pex1; source: E. coli BL21, coexpressed with His-Pex6, purified (Ni-NTA, anti-FLAG M2 agarose, Superose 6)
T1 sequence (looked up): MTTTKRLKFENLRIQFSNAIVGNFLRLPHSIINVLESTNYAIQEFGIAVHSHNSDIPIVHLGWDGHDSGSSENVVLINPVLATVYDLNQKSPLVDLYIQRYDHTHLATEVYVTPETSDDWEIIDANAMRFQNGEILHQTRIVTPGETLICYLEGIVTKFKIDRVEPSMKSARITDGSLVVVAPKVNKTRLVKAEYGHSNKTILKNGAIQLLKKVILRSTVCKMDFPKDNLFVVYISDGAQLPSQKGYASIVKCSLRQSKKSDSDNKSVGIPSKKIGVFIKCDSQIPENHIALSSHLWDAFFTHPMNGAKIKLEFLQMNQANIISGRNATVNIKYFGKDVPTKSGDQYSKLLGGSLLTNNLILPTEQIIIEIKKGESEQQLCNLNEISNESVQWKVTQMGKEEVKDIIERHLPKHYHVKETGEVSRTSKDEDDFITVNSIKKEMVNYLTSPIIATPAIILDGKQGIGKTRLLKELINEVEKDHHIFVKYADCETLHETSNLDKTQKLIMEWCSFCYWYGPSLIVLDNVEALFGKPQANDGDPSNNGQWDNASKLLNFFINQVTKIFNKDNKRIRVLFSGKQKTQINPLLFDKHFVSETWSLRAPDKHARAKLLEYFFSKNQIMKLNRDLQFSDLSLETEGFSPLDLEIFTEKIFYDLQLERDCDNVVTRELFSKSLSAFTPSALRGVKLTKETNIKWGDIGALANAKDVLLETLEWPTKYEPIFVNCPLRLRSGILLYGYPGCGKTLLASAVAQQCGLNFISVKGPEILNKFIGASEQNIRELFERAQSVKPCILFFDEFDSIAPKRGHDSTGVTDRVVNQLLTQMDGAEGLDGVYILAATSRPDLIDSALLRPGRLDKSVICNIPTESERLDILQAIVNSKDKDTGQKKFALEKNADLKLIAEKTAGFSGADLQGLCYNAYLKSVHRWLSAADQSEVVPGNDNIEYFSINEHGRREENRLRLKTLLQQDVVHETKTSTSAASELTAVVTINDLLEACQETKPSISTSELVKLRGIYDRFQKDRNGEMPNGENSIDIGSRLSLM

[2] = target: T2, ScPex1^G700D (Pex1-FLAG G700D), Saccharomyces cerevisiae (Saccharomyces cerevisiae, UniProt P24004 1-1043, G700D); experiment: as above; details: both partners purified
T2 construct: Pex1, Saccharomyces cerevisiae, with G700D (homologous to human G843D); source: E. coli BL21, coexpressed with His-Pex6, purified (Ni-NTA, anti-FLAG M2 agarose, Superose 6)
T2 sequence (looked up): T1 sequence (looked up) with G700D

binding result [1]: binds | binding result [2]: binds
B1: ScPex6 (His-Pex6), Saccharomyces cerevisiae (natural protein)
chain: MKASLTFSLSGIYAPCSISRDIYLEYGDKKAECLYGTIRLPQYGPGCTPGKIVHCVLDDSLPFCSIVVPSKLFGFMPTQPTMDFCYFEPILDNVVPVLDSVTFLINEQLYSKLMDLPQEMQQIQFLHYKYNINSMETVVHSRDILTSGLCQILNCSPFPQGLVDFTETQLILVNDTEQKLSALKYANEDEEYALPKIGTNSALSIDLESLPCTISRDLLRPAPHINDDNSIYAFTDAETLLRLDVTSGSFITVSNMGCVRLVKLFVLLLPNGFKKRTIYAPPKIIASFPDCSVVTISKSNIGHTDIPIANQVFISRVGGWLQSQKCFQNIILTTLKKFFSESKRILCQNDLIPIAFDSSMADLNIAEENDESDDEDELGQYYKNDSLVWFFVTSAELDCFSKDNSHFIIDPNRTKLITTNITNRRPLPLSRSNLQRYYGFAETFYYDLHIFPYVRQLVNILETSFNCSQRGITLNASVLLHSTTNNVGKATMVRFASKYLGIHLLEIDCLSLTSNSRQLDSTSKIIGYIRAKCENVLPYASPAVIFLAHLDSILLDVNANQDPEAIKLQKSINFEMSKLLDDFTFKFPGTTFVGSVNNIDNVPSSFRSHMRFEILVPVPSEAQRLRIFQWYLSSHELNRDVQQKVPVSYMDNISFSSLSSYSAGLTPLDIKSIVETARMTATARFYQESKKCGWLPQSILITQEDLSKATSKARNEFSVSIGAPQIPNVTWDDIGGIDFVKGEILDTIDMPLKHPELFTSGMKKRSGILFYGPPGTGKTLMAKAIATNFSLNFFSVKGPELLNMYIGESEANVRRVFQKAREAKPCVIFFDEIDSVAPKRGNQGDSGGVMDRIVSQLLAELDGMSTDADGVFVIGATNRPDLLDEALLRPGRFDKLLYLGIPDTDTKQLNILEALTRKFVLDNDVKLIELAKLCPFNYTGADFYALCSDAMLNAMSRIARMVEKKVSQHNELTGENISTRRWFDKIATKEDTKVVVKMEDFLKAQEQLTPSVSRAELNHYEAVRANFEGA
notes: Pex6, Saccharomyces cerevisiae; Expressed from pCOLADuet; source: E. coli BL21, coexpressed with Pex1-FLAG, purified (Ni-NTA, anti-FLAG M2 agarose, Superose 6)
